Four molecules from patent US20210388087A1 (Chugai, published 2021) can be followed below.

B1: CE115HA000 G98D one-arm antibody (antibody, human IgG1, kappa, L234A L235A, N297A, name in Kabat numbering)
heavy: QVQLVESGGGVVQPGRSLRLSCAASGFTFSNAWMHWVRQAPGKGLEWVAQIKAKSNNYATYYAESVKGRFTISRDDSKNSLYLQMNSLKTEDTAVYYCRYVHYDAYYGVDAWGQGTTVTVSSASTKGPSVFPLAPSSKSTSGGTAALGCLVKDYFPEPVTVSWNSGALTSGVHTFPAVLQSSGLYSLSSVVTVPSSSLGTQTYICNVNHKPSNTKVDKKVEPKSCDKTHTCPPCPAPEAAGGPSVFLFPPKPKDTLMISRTPEVTCVVVDVSHEDPEVKFNWYVDGVEVHNAKTKPREEQYASTYRVVSVLTVLHQDWLNGKEYKCKVSNKALPAPIEKTISKAKGQPREPQVYTLPPSRCELTKNQVSLSCAVKGFYPSDIAVEWESNGQPENNYKTTPPVLDSDGSFFLVSKLTVDKSRWQQGNVFSCSVMHEALHNHYTQKSLSLSPDYKDDDDK
chain: EPKSSDKTHTCPPCPAPELLGGPSVFLFPPKPKDTLMISRTPEVTCVVVDVSHEDPEVKFNWYVDGVEVHNAKTKPREEQYNSTYRVVSVLTVLHQDWLNGKEYKCKVSNKALPAPIEKTISKAKGQPREPQVCTLPPSRDELTKNQVSLWCLVKGFYPSDIAVEWESNGQPENNYKTTPPVLDSDGSFFLYSKLTVDKSRWQQGNVFSCSVMHEALHNRYTQKSLSLSP
light: DIVMTQSPLSLPVTPGEPASISCRSSQSLVHSNRNTYLHWYQQKPGQAPRLLIYKVSNRFSGVPDRFSGSGSGTDFTLKISRVEAEDVGVYYCGQGTQVPYTFGQGTKLEIKRTVAAPSVFIFPPSDEQLKSGTASVVCLLNNFYPREAKVQWKVDNALQSGNSQESVTEQDSKDSTYSLSSTLTLSKADYEKHKVYACEVTHQGLSSPVTKSFNRGEC
B2: CE115HA000 G98K one-arm antibody (antibody, human IgG1, kappa, L234A L235A, N297A, name in Kabat numbering)
heavy: QVQLVESGGGVVQPGRSLRLSCAASGFTFSNAWMHWVRQAPGKGLEWVAQIKAKSNNYATYYAESVKGRFTISRDDSKNSLYLQMNSLKTEDTAVYYCRYVHYKAYYGVDAWGQGTTVTVSSASTKGPSVFPLAPSSKSTSGGTAALGCLVKDYFPEPVTVSWNSGALTSGVHTFPAVLQSSGLYSLSSVVTVPSSSLGTQTYICNVNHKPSNTKVDKKVEPKSCDKTHTCPPCPAPEAAGGPSVFLFPPKPKDTLMISRTPEVTCVVVDVSHEDPEVKFNWYVDGVEVHNAKTKPREEQYASTYRVVSVLTVLHQDWLNGKEYKCKVSNKALPAPIEKTISKAKGQPREPQVYTLPPSRCELTKNQVSLSCAVKGFYPSDIAVEWESNGQPENNYKTTPPVLDSDGSFFLVSKLTVDKSRWQQGNVFSCSVMHEALHNHYTQKSLSLSPDYKDDDDK
chain: EPKSSDKTHTCPPCPAPELLGGPSVFLFPPKPKDTLMISRTPEVTCVVVDVSHEDPEVKFNWYVDGVEVHNAKTKPREEQYNSTYRVVSVLTVLHQDWLNGKEYKCKVSNKALPAPIEKTISKAKGQPREPQVCTLPPSRDELTKNQVSLWCLVKGFYPSDIAVEWESNGQPENNYKTTPPVLDSDGSFFLYSKLTVDKSRWQQGNVFSCSVMHEALHNRYTQKSLSLSP
light: DIVMTQSPLSLPVTPGEPASISCRSSQSLVHSNRNTYLHWYQQKPGQAPRLLIYKVSNRFSGVPDRFSGSGSGTDFTLKISRVEAEDVGVYYCGQGTQVPYTFGQGTKLEIKRTVAAPSVFIFPPSDEQLKSGTASVVCLLNNFYPREAKVQWKVDNALQSGNSQESVTEQDSKDSTYSLSSTLTLSKADYEKHKVYACEVTHQGLSSPVTKSFNRGEC
B3: CE115HA000 G98P one-arm antibody (antibody, human IgG1, kappa, L234A L235A, N297A, name in Kabat numbering)
heavy: QVQLVESGGGVVQPGRSLRLSCAASGFTFSNAWMHWVRQAPGKGLEWVAQIKAKSNNYATYYAESVKGRFTISRDDSKNSLYLQMNSLKTEDTAVYYCRYVHYPAYYGVDAWGQGTTVTVSSASTKGPSVFPLAPSSKSTSGGTAALGCLVKDYFPEPVTVSWNSGALTSGVHTFPAVLQSSGLYSLSSVVTVPSSSLGTQTYICNVNHKPSNTKVDKKVEPKSCDKTHTCPPCPAPEAAGGPSVFLFPPKPKDTLMISRTPEVTCVVVDVSHEDPEVKFNWYVDGVEVHNAKTKPREEQYASTYRVVSVLTVLHQDWLNGKEYKCKVSNKALPAPIEKTISKAKGQPREPQVYTLPPSRCELTKNQVSLSCAVKGFYPSDIAVEWESNGQPENNYKTTPPVLDSDGSFFLVSKLTVDKSRWQQGNVFSCSVMHEALHNHYTQKSLSLSPDYKDDDDK
chain: EPKSSDKTHTCPPCPAPELLGGPSVFLFPPKPKDTLMISRTPEVTCVVVDVSHEDPEVKFNWYVDGVEVHNAKTKPREEQYNSTYRVVSVLTVLHQDWLNGKEYKCKVSNKALPAPIEKTISKAKGQPREPQVCTLPPSRDELTKNQVSLWCLVKGFYPSDIAVEWESNGQPENNYKTTPPVLDSDGSFFLYSKLTVDKSRWQQGNVFSCSVMHEALHNRYTQKSLSLSP
light: DIVMTQSPLSLPVTPGEPASISCRSSQSLVHSNRNTYLHWYQQKPGQAPRLLIYKVSNRFSGVPDRFSGSGSGTDFTLKISRVEAEDVGVYYCGQGTQVPYTFGQGTKLEIKRTVAAPSVFIFPPSDEQLKSGTASVVCLLNNFYPREAKVQWKVDNALQSGNSQESVTEQDSKDSTYSLSSTLTLSKADYEKHKVYACEVTHQGLSSPVTKSFNRGEC
B4: CE115HA000 G98H one-arm antibody (antibody, human IgG1, kappa, L234A L235A, N297A, name in Kabat numbering)
heavy: QVQLVESGGGVVQPGRSLRLSCAASGFTFSNAWMHWVRQAPGKGLEWVAQIKAKSNNYATYYAESVKGRFTISRDDSKNSLYLQMNSLKTEDTAVYYCRYVHYHAYYGVDAWGQGTTVTVSSASTKGPSVFPLAPSSKSTSGGTAALGCLVKDYFPEPVTVSWNSGALTSGVHTFPAVLQSSGLYSLSSVVTVPSSSLGTQTYICNVNHKPSNTKVDKKVEPKSCDKTHTCPPCPAPEAAGGPSVFLFPPKPKDTLMISRTPEVTCVVVDVSHEDPEVKFNWYVDGVEVHNAKTKPREEQYASTYRVVSVLTVLHQDWLNGKEYKCKVSNKALPAPIEKTISKAKGQPREPQVYTLPPSRCELTKNQVSLSCAVKGFYPSDIAVEWESNGQPENNYKTTPPVLDSDGSFFLVSKLTVDKSRWQQGNVFSCSVMHEALHNHYTQKSLSLSPDYKDDDDK
chain: EPKSSDKTHTCPPCPAPELLGGPSVFLFPPKPKDTLMISRTPEVTCVVVDVSHEDPEVKFNWYVDGVEVHNAKTKPREEQYNSTYRVVSVLTVLHQDWLNGKEYKCKVSNKALPAPIEKTISKAKGQPREPQVCTLPPSRDELTKNQVSLWCLVKGFYPSDIAVEWESNGQPENNYKTTPPVLDSDGSFFLYSKLTVDKSRWQQGNVFSCSVMHEALHNRYTQKSLSLSP
light: DIVMTQSPLSLPVTPGEPASISCRSSQSLVHSNRNTYLHWYQQKPGQAPRLLIYKVSNRFSGVPDRFSGSGSGTDFTLKISRVEAEDVGVYYCGQGTQVPYTFGQGTKLEIKRTVAAPSVFIFPPSDEQLKSGTASVVCLLNNFYPREAKVQWKVDNALQSGNSQESVTEQDSKDSTYSLSSTLTLSKADYEKHKVYACEVTHQGLSSPVTKSFNRGEC

In the assay the target is T1, CD3 epsilon homodimer protein (UniProt P07766 23-126).
T1 construct: immobilized on Sensor chip CM4 by amine coupling; also called CD3 (CD3 epsilon)
T1 sequence (P07766 23-126): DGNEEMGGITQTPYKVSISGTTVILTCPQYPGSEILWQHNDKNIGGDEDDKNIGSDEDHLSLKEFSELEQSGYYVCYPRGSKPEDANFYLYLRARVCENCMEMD
Briefly: SPR (Biacore T200), CD3 epsilon homodimer on CM4 chip, one-arm antibody as analyte, 25 C.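 Further: homodimer attached to the sensor surface via amine coupling, HBS-EP+ used as running buffer during binding runs.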
Take B1: the “ratio of amounts bound (altered form / CE115HA000)” value is 0.26.
The figure for B2 is 2.83; for B3 it is 1.02.
As for B4, the “ratio of amounts bound (altered form / CE115HA000)” value was 1.58.
